# Source: IntAct's records for PubMed 27314904
# B1: Polyglutamine-binding protein 1 (Homo sapiens), O60828 (parent)
# chain: MPLPVALQTRLAKRGILKHLEPEPEEEIIAEDYDDDPVDYEATRLEGLPPSWYKVFDPSCGLPYYWNADTDLVSWLSPHDPNSVVTKSAKKLRSSNADAEEKLDRSHDKSDRGHDKSDRSHEKLDRGHDKSDRGHDKSDRDRERGYDKVDRERERDRERDRDRGYDKADREEGKERRHHRREELAPYPKSKKAVSRKDEELDPMDPSSYSDAPRGTWSTGLPKRNEAKTGADTTAAGPLFQQRPYPSPGAVLRANAEASRTKQQD
# B2: WW domain-binding protein 11 (Homo sapiens), Q9Y2W2 (parent)
# chain: MGRRSTSSTKSGKFMNPTDQARKEARKRELKKNKKQRMMVRAAVLKMKDPKQIIRDMEKLDEMEFNPVQQPQLNEKVLKDKRKKLRETFERILRLYEKENPDIYKELRKLEVEYEQKRAQLSQYFDAVKNAQHVEVESIPLPDMPHAPSNILIQDIPLPGAQPPSILKKTSAYGPPTRAVSILPLLGHGVPRLPPGRKPPGPPPGPPPPQVVQMYGRKVGFALDLPPRRRDEDMLYSPELAQRGHDDDVSSTSEDDGYPEDMDQDKHDDSTDDSDTDKSDGESDGDEFVHRDNGERDNNEEKKSGLSVRFADMPGKSRKKKKNMKELTPLQAMMLRMAGQEIPEEGREVEEFSEDDDEDDSDDSEAEKQSQKQHKEESHSDGTSTASSQQQAPPQSVPPSQIQAPPMPGPPPLGPPPAPPLRPPGPPTGLPPGPPPGAPPFLRPPGMPGLRGPLPRLLPPGPPPGRPPGPPPGPPPGLPPGPPPRGPPPRLPPPAPPGIPPPRPGMMRPPLVPPLGPAPPGLFPPAPLPNPGVLSAPPNLIQRPKADDTSAATIEKKATATISAKPQITNPKAEITRFVPTALRVRRENKGATAAPQRKSEDDSAVPLAKAAPKSGPSVPVSVQTKDDVYEAFMKEMEGLL
# Variants of: B1
# Conditions: with wbp11_human WBP11, Q9Y2W2
row,effect of a mutation on the interaction,Variant
1,disrupting interaction,MPLPVALQTRLAKRGILKHLEPEPEEEIIAEDYDDDPVDYEATRLEGLPPSWYKVFDPSCGLPYYWNADTDLVSALSPHDPNSVVTKSAKKLRSSNADAEEKLDRSHDKSDRGHDKSDRSHEKLDRGHDKSDRGHDKSDRDRERGYDKVDRERERDRERDRDRGYDKADREEGKERRHHRREELAPYPKSKKAVSRKDEELDPMDPSSYSDAPRGTWSTGLPKRNEAKTGADTTAAGPLFQQRPYPSPGAVLRANAEASRTKQQD [W75A]
2,disrupting interaction,MPLPVALQTRLAKRGILKHLEPEPEEEIIAEDYDDDPVDYEATRLEGLPPSWYKVFDPSCGLPYCWNADTDLVSWLSPHDPNSVVTKSAKKLRSSNADAEEKLDRSHDKSDRGHDKSDRSHEKLDRGHDKSDRGHDKSDRDRERGYDKVDRERERDRERDRDRGYDKADREEGKERRHHRREELAPYPKSKKAVSRKDEELDPMDPSSYSDAPRGTWSTGLPKRNEAKTGADTTAAGPLFQQRPYPSPGAVLRANAEASRTKQQD [Y65C]
3,decreasing interaction,MPLPVALQTRLAKRGILKHLEPEPEEEIIAEDYDDDPVDYEATRLEGLPPSWYKVFDPSCGLPYYWNADTDLASWLSPHDPNSVVTKSAKKLRSSNADAEEKLDRSHDKSDRGHDKSDRSHEKLDRGHDKSDRGHDKSDRDRERGYDKVDRERERDRERDRDRGYDKADREEGKERRHHRREELAPYPKSKKAVSRKDEELDPMDPSSYSDAPRGTWSTGLPKRNEAKTGADTTAAGPLFQQRPYPSPGAVLRANAEASRTKQQD [V73A]
4,disrupting interaction,MPLPVALQTRLAKRGILKHLEPEPEEEIIAEDYDDDPVDYEATRLEGLPPSWYKVFDPSCGLPYYANADTDLVSWLSPHDPNSVVTKSAKKLRSSNADAEEKLDRSHDKSDRGHDKSDRSHEKLDRGHDKSDRGHDKSDRDRERGYDKVDRERERDRERDRDRGYDKADREEGKERRHHRREELAPYPKSKKAVSRKDEELDPMDPSSYSDAPRGTWSTGLPKRNEAKTGADTTAAGPLFQQRPYPSPGAVLRANAEASRTKQQD [W66A]
5,disrupting interaction,MPLPVALQTRLAKRGILKHLEPEPEEEIIAEDYDDDPVDYEATRLEGLPPSWYKVFDPSCGLPAYWNADTDLVSWLSPHDPNSVVTKSAKKLRSSNADAEEKLDRSHDKSDRGHDKSDRSHEKLDRGHDKSDRGHDKSDRDRERGYDKVDRERERDRERDRDRGYDKADREEGKERRHHRREELAPYPKSKKAVSRKDEELDPMDPSSYSDAPRGTWSTGLPKRNEAKTGADTTAAGPLFQQRPYPSPGAVLRANAEASRTKQQD [Y64A]

# Variants of: B2
# Conditions: with pqbp1_human PQBP1, O60828
row,effect of a mutation on the interaction,Variant
1,decreasing interaction,P455A;R456A;L457A;L458A

# Variants of: B2
# Conditions: with pqbp1_human PQBP1, O60828
# Remark: another data set of the same source
row,effect of a mutation on the interaction,Variant
1,disrupting interaction,P462A;P463A;P464A;G465A

# Variants of: B2
# Conditions: with pqbp1_human PQBP1, O60828
# Remark: another data set of the same source
row,effect of a mutation on the interaction,Variant
1,decreasing interaction,P459A;P460A;G461A

# Variants of: B2
# Conditions: with pqbp1_human PQBP1, O60828
# Remark: another data set of the same source
row,effect of a mutation on the interaction,Variant
1,decreasing interaction,R466A;P467A;P468A;G469A
